According to the supplement of paper PMC10266784:

B1: library; numbered along this chain (parent)
chain: MAAAAAAAAEQQSSNGPVKKSMREKAVERRSVNKEHNSNFKAGYIPIDEDRLHKTGLRGRKGNLAICVIILLFILAVINLIITLVIWAVIRIGPNGCDSMEFHESGLLRFKQVSDMGVIHPLYKSTVGGRRNENLVITGNNQPIVFQQGTTKLSVENNKTSITSDIGMQFFDPRTQNILFSTDYETHEFHLPSGVKSLNVQKASTERITSNATSDLNIKVDGRAIVRGNEGVFIMGKTIEFHMGGNMELKAENSIILNGSVMVSTTRLPSSSSGDQLGSGDWVRYKLCMCADGTLFKVQVTSQNMGCQISDNPCGNTH

Variants of: B1
Assay: SGCB cell-surface expression functional score (HA stain, bin4 vs bin1, normalised to synonymous) (log10 ratio); higher = more cell-surface SGCB (functional)
Description: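 Deep mutational scan of full-length human SGCB (YFP-SGCB-HA, NNN codon sublibraries A-F) delivered by lentivirus at low MOI into ADG-HEK293 cells stably expressing SGCA, SGCD and SGCG. YFP-positive cells were stained for surface HA on unpermeabilized cells and FACS-sorted into bins. The functional score is log10(frequency in high bin 4 / frequency in low bin 1), normalised per chunk so that synonymous variants have mean 0 and SD 0.5. Scores are the median over codons and over duplicate biological replicates; scores below -0.5 are called non-functional. Scale: negative means deleterious.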

Variant	SGCB cell-surface expression functional score (log10)
MAAAAAAAAETQSSNGPVKKSMREKAVERRSVNKEHNSNFKAGYIPIDEDRLHKTGLRGRKGNLAICVIILLFILAVINLIITLVIWAVIRIGPNGCDSMEFHESGLLRFKQVSDMGVIHPLYKSTVGGRRNENLVITGNNQPIVFQQGTTKLSVENNKTSITSDIGMQFFDPRTQNILFSTDYETHEFHLPSGVKSLNVQKASTERITSNATSDLNIKVDGRAIVRGNEGVFIMGKTIEFHMGGNMELKAENSIILNGSVMVSTTRLPSSSSGDQLGSGDWVRYKLCMCADGTLFKVQVTSQNMGCQISDNPCGNTH [Q11T]	-0.02
MAAAAAAAAEWQSSNGPVKKSMREKAVERRSVNKEHNSNFKAGYIPIDEDRLHKTGLRGRKGNLAICVIILLFILAVINLIITLVIWAVIRIGPNGCDSMEFHESGLLRFKQVSDMGVIHPLYKSTVGGRRNENLVITGNNQPIVFQQGTTKLSVENNKTSITSDIGMQFFDPRTQNILFSTDYETHEFHLPSGVKSLNVQKASTERITSNATSDLNIKVDGRAIVRGNEGVFIMGKTIEFHMGGNMELKAENSIILNGSVMVSTTRLPSSSSGDQLGSGDWVRYKLCMCADGTLFKVQVTSQNMGCQISDNPCGNTH [Q11W]	0.61
MAAAAAAAAEYQSSNGPVKKSMREKAVERRSVNKEHNSNFKAGYIPIDEDRLHKTGLRGRKGNLAICVIILLFILAVINLIITLVIWAVIRIGPNGCDSMEFHESGLLRFKQVSDMGVIHPLYKSTVGGRRNENLVITGNNQPIVFQQGTTKLSVENNKTSITSDIGMQFFDPRTQNILFSTDYETHEFHLPSGVKSLNVQKASTERITSNATSDLNIKVDGRAIVRGNEGVFIMGKTIEFHMGGNMELKAENSIILNGSVMVSTTRLPSSSSGDQLGSGDWVRYKLCMCADGTLFKVQVTSQNMGCQISDNPCGNTH [Q11Y]	0.17
MAAAAAAAAEVQSSNGPVKKSMREKAVERRSVNKEHNSNFKAGYIPIDEDRLHKTGLRGRKGNLAICVIILLFILAVINLIITLVIWAVIRIGPNGCDSMEFHESGLLRFKQVSDMGVIHPLYKSTVGGRRNENLVITGNNQPIVFQQGTTKLSVENNKTSITSDIGMQFFDPRTQNILFSTDYETHEFHLPSGVKSLNVQKASTERITSNATSDLNIKVDGRAIVRGNEGVFIMGKTIEFHMGGNMELKAENSIILNGSVMVSTTRLPSSSSGDQLGSGDWVRYKLCMCADGTLFKVQVTSQNMGCQISDNPCGNTH [Q11V]	-0.03
MAAAAAAAAEQASSNGPVKKSMREKAVERRSVNKEHNSNFKAGYIPIDEDRLHKTGLRGRKGNLAICVIILLFILAVINLIITLVIWAVIRIGPNGCDSMEFHESGLLRFKQVSDMGVIHPLYKSTVGGRRNENLVITGNNQPIVFQQGTTKLSVENNKTSITSDIGMQFFDPRTQNILFSTDYETHEFHLPSGVKSLNVQKASTERITSNATSDLNIKVDGRAIVRGNEGVFIMGKTIEFHMGGNMELKAENSIILNGSVMVSTTRLPSSSSGDQLGSGDWVRYKLCMCADGTLFKVQVTSQNMGCQISDNPCGNTH [Q12A]	0.29
MAAAAAAAAEQCSSNGPVKKSMREKAVERRSVNKEHNSNFKAGYIPIDEDRLHKTGLRGRKGNLAICVIILLFILAVINLIITLVIWAVIRIGPNGCDSMEFHESGLLRFKQVSDMGVIHPLYKSTVGGRRNENLVITGNNQPIVFQQGTTKLSVENNKTSITSDIGMQFFDPRTQNILFSTDYETHEFHLPSGVKSLNVQKASTERITSNATSDLNIKVDGRAIVRGNEGVFIMGKTIEFHMGGNMELKAENSIILNGSVMVSTTRLPSSSSGDQLGSGDWVRYKLCMCADGTLFKVQVTSQNMGCQISDNPCGNTH [Q12C]	-0.19
MAAAAAAAAEQGSSNGPVKKSMREKAVERRSVNKEHNSNFKAGYIPIDEDRLHKTGLRGRKGNLAICVIILLFILAVINLIITLVIWAVIRIGPNGCDSMEFHESGLLRFKQVSDMGVIHPLYKSTVGGRRNENLVITGNNQPIVFQQGTTKLSVENNKTSITSDIGMQFFDPRTQNILFSTDYETHEFHLPSGVKSLNVQKASTERITSNATSDLNIKVDGRAIVRGNEGVFIMGKTIEFHMGGNMELKAENSIILNGSVMVSTTRLPSSSSGDQLGSGDWVRYKLCMCADGTLFKVQVTSQNMGCQISDNPCGNTH [Q12G]	0.12
MAAAAAAAAEQDSSNGPVKKSMREKAVERRSVNKEHNSNFKAGYIPIDEDRLHKTGLRGRKGNLAICVIILLFILAVINLIITLVIWAVIRIGPNGCDSMEFHESGLLRFKQVSDMGVIHPLYKSTVGGRRNENLVITGNNQPIVFQQGTTKLSVENNKTSITSDIGMQFFDPRTQNILFSTDYETHEFHLPSGVKSLNVQKASTERITSNATSDLNIKVDGRAIVRGNEGVFIMGKTIEFHMGGNMELKAENSIILNGSVMVSTTRLPSSSSGDQLGSGDWVRYKLCMCADGTLFKVQVTSQNMGCQISDNPCGNTH [Q12D]	-0.24
MAAAAAAAAEQFSSNGPVKKSMREKAVERRSVNKEHNSNFKAGYIPIDEDRLHKTGLRGRKGNLAICVIILLFILAVINLIITLVIWAVIRIGPNGCDSMEFHESGLLRFKQVSDMGVIHPLYKSTVGGRRNENLVITGNNQPIVFQQGTTKLSVENNKTSITSDIGMQFFDPRTQNILFSTDYETHEFHLPSGVKSLNVQKASTERITSNATSDLNIKVDGRAIVRGNEGVFIMGKTIEFHMGGNMELKAENSIILNGSVMVSTTRLPSSSSGDQLGSGDWVRYKLCMCADGTLFKVQVTSQNMGCQISDNPCGNTH [Q12F]	-0.27
MAAAAAAAAEQESSNGPVKKSMREKAVERRSVNKEHNSNFKAGYIPIDEDRLHKTGLRGRKGNLAICVIILLFILAVINLIITLVIWAVIRIGPNGCDSMEFHESGLLRFKQVSDMGVIHPLYKSTVGGRRNENLVITGNNQPIVFQQGTTKLSVENNKTSITSDIGMQFFDPRTQNILFSTDYETHEFHLPSGVKSLNVQKASTERITSNATSDLNIKVDGRAIVRGNEGVFIMGKTIEFHMGGNMELKAENSIILNGSVMVSTTRLPSSSSGDQLGSGDWVRYKLCMCADGTLFKVQVTSQNMGCQISDNPCGNTH [Q12E]	0
